Reference: patent US8748480B2, “Methods for treating opioid tolerance” (priority 2005, dated 2014)

Tests used:
Type in all cases: binding
Gβ1γ2 Asp246Ser = target: T1, Gβ1γ2 Asp246Ser (Rattus norvegicus, UniProt P54311, D246S); experiment: Phage ELISA, b-βγ mutant Asp246Ser; settings: Asp246 mutant (Asp246Ser), N-Terminal Interface; mean ± SD
T1 construct: made in house; host or cells: Sf9 insect cells (baculovirus)
Description: (§1) Wild-type Gβ1 and Gβ1 mutants were made in the baculovirus vector PDW464 which encodes a biotinylation site at a lysine upstream of the amino terminus of Gβ1 (Goubaeva, et al. (2003) supra). Mutants were generated by overlap extension PCR using standard protocols. The wild-type and mutant Gβ1 constructs consisted of a 20 amino acid biotin acceptor peptide (BAP) sequence fused in-frame with the amino-terminus of rat Gβ1 subunit. When coexpressed with biotin holoenzyme synthetase (BirA) in Sf9 cells, the Gβ1 subunit becomes covalently biotinylated in vivo at the Specific lysine acceptor residue in the BAP. Using this approach, 1-2 mg protein of purified protein can be obtained per liter of Sf9 insect cells. As 45 ng of protein is used in the phage ELISA assay, a single purification is sufficient for 10,000 to 30,000 binding assays.
(§2) Phage ELISA assays used to assess peptide binding to wild-type and mutant b-βγ were performed according to standard methods (Smrcka and Scott (2002) Methods Enzymol. 344:557-76). Briefly, 1 μg streptavidin was immobilized in the well of a […] overnight at 4° C. The wells were blocked with 100 μL of 2% bovine serum albumin (BSA) in Tris-buffered saline (TBS) for 1 hour at 4° C. followed by three washes of 1×TBS/0.5% TWEEN®. Forty μL of 25 nM bGβ1γ2 in TBS/0.5% TWEEN® was added to each well and incubated at 4° C. for 1.5 hour. The wells were washed, followed by the addition of 1×10^6 to 1×10^10 phage particles and incubated at 4° C. for 3 hours. The wells were then washed six times with TBS/0.5% TWEEN® followed by addition of 40 μL of 1:5000 dilution of anti-M13 antibody (Pharmacia, Uppsala, Sweden) and incubated at room temperature for 1 hour. The wells were washed, followed by the addition of 40 μL of (2,2′-Azino-bis(3-ethylbenzthiazoline)-6-sulfonic acid (ABTS) and the colorimetric reaction was monitored at 405 nm. Non-specific binding was subtracted for each reading.
(§3) Both assays were then carried out with Gβ1γ2 heterodimers containing mutations in the Gβ1 subunit.
(§4) The nine peptides were selected to represent the different consensus groups of peptides previously identified (See Scott et al. (2001) supra; Table 9) and to compare binding characteristics within and between consensus groups. […] As disclosed herein, the binding signal obtained in the ELISA assay was correlated to a loss in affinity by comparing the results to behavior of the peptide in a solution based assay. […] For the purposes of present disclosure, any substitution that decreased the binding to less than 20% of the wild-type binding was considered to be a critical binding contact for that peptide.

Gβ1γ2 Met188Ala = target: T2, Gβ1γ2 Met188Ala (Rattus norvegicus, UniProt P54311, M188A); experiment: Phage ELISA, b-βγ mutant Met188Ala; settings: alanine-substituted Met188, Shared; mean ± SD
T2 construct: made in house; host or cells: Sf9 insect cells (baculovirus)
T2 sequence (P54311 whole entry M188A): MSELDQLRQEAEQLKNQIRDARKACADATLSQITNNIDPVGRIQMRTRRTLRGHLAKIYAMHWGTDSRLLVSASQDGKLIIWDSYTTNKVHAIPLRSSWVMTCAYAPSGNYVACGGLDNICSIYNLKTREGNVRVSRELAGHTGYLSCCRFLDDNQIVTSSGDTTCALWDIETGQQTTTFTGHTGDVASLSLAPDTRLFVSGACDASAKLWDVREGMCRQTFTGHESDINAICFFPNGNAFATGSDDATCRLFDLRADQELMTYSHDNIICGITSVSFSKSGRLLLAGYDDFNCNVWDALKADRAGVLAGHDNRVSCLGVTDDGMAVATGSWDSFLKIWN
T2 sequence (P63212 2-68 partner limits assumed): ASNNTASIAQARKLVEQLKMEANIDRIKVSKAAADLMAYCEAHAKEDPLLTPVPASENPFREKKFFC
Description: as §1, §2, §3, §4

Gβ1γ2 Trp99Ala = target: T3, Gβ1γ2 Trp99Ala (Rattus norvegicus, UniProt P54311, W99A); experiment: Phage ELISA, b-βγ mutant Trp99Ala; settings: alanine-substituted Trp99, C-Terminal Interface; mean ± SD
T3 construct: made in house; host or cells: Sf9 insect cells (baculovirus)
T3 sequence (P54311 whole entry W99A): as the sequence (P54311 whole entry M188A) above, with W99A, A188M counted along it
T3 sequence (P63212 2-68 partner limits assumed): as the sequence (P63212 2-68 partner limits assumed) above
Description: as §1, §2, §3, §4

Gβ1γ2 Asn230Ala = target: T4, Gβ1γ2 Asn230Ala (Rattus norvegicus, UniProt P54311, N230A); experiment: Phage ELISA, b-βγ mutant Asn230Ala; settings: alanine-substituted Asn230, N-Terminal Interface; mean ± SD
T4 construct: made in house; host or cells: Sf9 insect cells (baculovirus)
T4 sequence (P54311 whole entry N230A): as the sequence (P54311 whole entry M188A) above, with A188M, N230A counted along it
T4 sequence (P63212 2-68 partner limits assumed): as the sequence (P63212 2-68 partner limits assumed) above
Description: as §1, §2, §3, §4

Gβ1γ2 Lys57Ala = target: T5, Gβ1γ2 Lys57Ala (Rattus norvegicus, UniProt P54311, K57A); experiment: Phage ELISA, b-βγ mutant Lys57Ala; settings: alanine-substituted Lys57, C-Terminal Interface; mean ± SD
T5 construct: made in house; host or cells: Sf9 insect cells (baculovirus)
T5 sequence (P54311 whole entry K57A): as the sequence (P54311 whole entry M188A) above, with K57A, A188M counted along it
T5 sequence (P63212 2-68 partner limits assumed): as the sequence (P63212 2-68 partner limits assumed) above
Description: as §1, §2, §3, §4

Gβ1γ2 Met101Ala = target: T6, Gβ1γ2 Met101Ala (Rattus norvegicus, UniProt P54311, M101A); experiment: Phage ELISA, b-βγ mutant Met101Ala; settings: alanine-substituted Met101, C-Terminal Interface; mean ± SD
T6 construct: made in house; host or cells: Sf9 insect cells (baculovirus)
T6 sequence (P54311 whole entry M101A): as the sequence (P54311 whole entry M188A) above, with M101A, A188M counted along it
T6 sequence (P63212 2-68 partner limits assumed): as the sequence (P63212 2-68 partner limits assumed) above
Description: as §1, §2, §3, §4

Gβ1γ2 Trp332Ala = target: T7, Gβ1γ2 Trp332Ala (Rattus norvegicus, UniProt P54311, W332A); experiment: Phage ELISA, b-βγ mutant Trp332Ala; settings: alanine-substituted Trp332, C-Terminal Interface; mean ± SD
T7 construct: made in house; host or cells: Sf9 insect cells (baculovirus)
T7 sequence (P54311 whole entry W332A): as the sequence (P54311 whole entry M188A) above, with A188M, W332A counted along it
T7 sequence (P63212 2-68 partner limits assumed): as the sequence (P63212 2-68 partner limits assumed) above
Description: as §1, §2, §3, §4

Gβ1γ2 Leu117Ala = target: T8, Gβ1γ2 Leu117Ala (Rattus norvegicus, UniProt P54311, L117A); experiment: Phage ELISA, b-βγ mutant Leu117Ala; settings: alanine-substituted Leu117, C-Terminal Interface; mean ± SD
T8 construct: made in house; host or cells: Sf9 insect cells (baculovirus)
T8 sequence (P54311 whole entry L117A): as the sequence (P54311 whole entry M188A) above, with L117A, A188M counted along it
T8 sequence (P63212 2-68 partner limits assumed): as the sequence (P63212 2-68 partner limits assumed) above
Description: as §1, §2, §3, §4

Gβ1γ2 Asp186Ala = target: T9, Gβ1γ2 Asp186Ala (Rattus norvegicus, UniProt P54311, D186A); experiment: Phage ELISA, b-βγ mutant Asp186Ala; settings: alanine-substituted Asp186, N-Terminal Interface; mean ± SD
T9 construct: made in house; host or cells: Sf9 insect cells (baculovirus)
T9 sequence (P54311 whole entry D186A): as the sequence (P54311 whole entry M188A) above, with D186A, A188M counted along it
T9 sequence (P63212 2-68 partner limits assumed): as the sequence (P63212 2-68 partner limits assumed) above
Description: as §1, §2, §3, §4

Gβ1γ2 His311Ala = target: T10, Gβ1γ2 His311Ala (Rattus norvegicus, UniProt P54311, H311A); experiment: Phage ELISA, b-βγ mutant His311Ala; settings: alanine-substituted His311, Indirect; mean ± SD
T10 construct: made in house; host or cells: Sf9 insect cells (baculovirus)
T10 sequence (P54311 whole entry H311A): as the sequence (P54311 whole entry M188A) above, with A188M, H311A counted along it
T10 sequence (P63212 2-68 partner limits assumed): as the sequence (P63212 2-68 partner limits assumed) above
Description: as §1, §2, §3, §4

Gβ1γ2 Tyr59Ala = target: T11, Gβ1γ2 Tyr59Ala (Rattus norvegicus, UniProt P54311, Y59A); experiment: Phage ELISA, b-βγ mutant Tyr59Ala; settings: alanine-substituted Tyr59, C-Terminal Interface; mean ± SD
T11 construct: made in house; host or cells: Sf9 insect cells (baculovirus)
T11 sequence (P54311 whole entry Y59A): as the sequence (P54311 whole entry M188A) above, with Y59A, A188M counted along it
T11 sequence (P63212 2-68 partner limits assumed): as the sequence (P63212 2-68 partner limits assumed) above
Description: as §1, with “BAP.” for “BAP. Using this approach, 1-2 mg protein of purified protein can be obtained per liter of Sf9 insect cells. As 45 ng of protein is used in the phage ELISA assay, a single purification is sufficient for 10,000 to 30,000 binding assays.”
as §2, with “Forty μL of 25 nM bGβ1γ2 in TBS/0.5% TWEEN® was added to each well and incubated at 4° C. for 1.5 hour.” left out
as §3
The nine peptides were selected to represent the different consensus groups of peptides previously identified (See Scott et al. (2001) supra; Table 9) and to compare binding characteristics within and between consensus groups. […] For the purposes of present disclosure, any substitution that decreased the binding to less than 20% of the wild-type binding was considered to be a critical binding contact for that peptide.

Gβ1γ2 Tyr145Ala = target: T12, Gβ1γ2 Tyr145Ala (Rattus norvegicus, UniProt P54311, Y145A); experiment: Phage ELISA, b-βγ mutant Tyr145Ala; settings: alanine-substituted Tyr145, N-Terminal Interface; mean ± SD
T12 construct: made in house; host or cells: Sf9 insect cells (baculovirus)
T12 sequence (P54311 whole entry Y145A): as the sequence (P54311 whole entry M188A) above, with Y145A, A188M counted along it
T12 sequence (P63212 2-68 partner limits assumed): as the sequence (P63212 2-68 partner limits assumed) above
Description: as §1, §2, §3, §4

Gβ1γ2 Arg314Ala = target: T13, Gβ1γ2 Arg314Ala (Rattus norvegicus, UniProt P54311, R314A); experiment: Phage ELISA, b-βγ mutant Arg314Ala; settings: alanine-substituted Arg314, Indirect; mean ± SD
T13 construct: made in house; host or cells: Sf9 insect cells (baculovirus)
T13 sequence (P54311 whole entry R314A): as the sequence (P54311 whole entry M188A) above, with A188M, R314A counted along it
T13 sequence (P63212 2-68 partner limits assumed): as the sequence (P63212 2-68 partner limits assumed) above
Description: as §1, §2, §3, §4

T1 sequence (P54311 whole entry D246S): as the sequence (P54311 whole entry M188A) above, with A188M, D246S counted along it
T1 sequence (P63212 2-68 partner limits assumed): as the sequence (P63212 2-68 partner limits assumed) above

Sequence	% of Wild-Type Signal, Asp246 (Gβ1γ2 Asp246Ser) [%]	% of Wild-Type Signal, Met188 (Gβ1γ2 Met188Ala) [%]	% of Wild-Type Signal, Trp99 (Gβ1γ2 Trp99Ala) [%]	% of Wild-Type Signal, Asn230 (Gβ1γ2 Asn230Ala) [%]	% of Wild-Type Signal, Lys57 (Gβ1γ2 Lys57Ala) [%]	% of Wild-Type Signal, Met101 (Gβ1γ2 Met101Ala) [%]	% of Wild-Type Signal, Trp332 (Gβ1γ2 Trp332Ala) [%]	% of Wild-Type Signal, Leu117 (Gβ1γ2 Leu117Ala) [%]	% of Wild-Type Signal, Asp186 (Gβ1γ2 Asp186Ala) [%]	% of Wild-Type Signal, His311 (Gβ1γ2 His311Ala) [%]	% of Wild-Type Signal, Tyr59 (Gβ1γ2 Tyr59Ala) [%]	% of Wild-Type Signal, Tyr145 (Gβ1γ2 Tyr145Ala) [%]	% of Wild-Type Signal, Arg314 (Gβ1γ2 Arg314Ala) [%]
WCPPKLEQWYDGCA [C2]	5.9 ± 5.7	−0.7 ± 2.5	−1.0 ± 5.1	0.0 ± 3.3	−1.2 ± 4.5	157.1 ± 51.5	4.7 ± 6.2	1.5 ± 5.5	267.2 ± 40.6	11.7 ± 8.0	−1.7 ± 4.8	4.5 ± 8.1	1.3 ± 3.1
WCPPKAMTQLGIKAC [C14]	6.3 ± 13.9	9.9 ± 3.8	10.1 ± 3.3	60.0 ± 26.5	3.0 ± 5.0	1.1 ± 4.9	1.6 ± 2.4	3.8 ± 9.2	3.6 ± 1.9	6.1 ± 3.4	3.6 ± 2.0	1.9 ± 5.9	3.9 ± 7.9
LCSKAYLLLGQTC [2F]	0.6 ± 2.5	8.5 ± 5.2	32.6 ± 26.3	27.6 ± 19.1	−4.5 ± 6.2	6.0 ± 5.1	−1.5 ± 3.6	2.1 ± 5.5	2.4 ± 3.5	23.6 ± 46.0	−2.0 ± 9.5	0.1 ± 6.5	2.4 ± 3.9
SCKRTKAQILLAPCT [C1]	2.3 ± 3.0	4.0 ± 3.4	1.2 ± 2.7	19.8 ± 12.3	0.1 ± 1.6	70.5 ± 35.3	−0.3 ± 2.5	5.2 ± 3.1	1.4 ± 1.7	3.0 ± 4.0	0.3 ± 0.7	88.0 ± 29.9	2.8 ± 1.6
